Substitutions are numbered along the chain they refer to. Numbers in names are those of the source.

We go through 35 proteins from patent US20210230570.

To fix the notation:
B1: FIXa K293E/R338E/R403E (protein)
chain 1: YNSGKLEEFVQGNLERECMEEKCSFEEAREVFENTERTTEFWKQYVDGDQCESNPCLNGGSCKDDINSYECWCPFGFEGKNCELDVTCNIKNGRCEQFCKNSADNKVVCSCTEGYRLAENQKSCEPAVPFPCGRVSVSQTSKLTR
chain 2: VVGGEDAKPGQFPWQVVLNGKVDAFCGGSIVNEKWIVTAAHCVETGVKITVVAGEHNIEETEHTEQKRNVIRIIPHHNYNAAINKYNHDIALLELDEPLVLNSYVTPICIADEEYTNIFLKFGSGYVSGWGRVFHKGRSALVLQYLRVPLVDRATCLESTKFTIYNNMFCAGFHEGGRDSCQGDSGGPHVTEVEGTSFLTGIISWGEECAMKGKYGIYTKVSEYVNWIKEKTKLT
B2: FIXa-D203N/F205T/R318Y/E410N (protein)
chain 1: B1 chain 1
chain 2: B1 chain 2 with D23N, F25T, E113K, R138Y, E158R, E223R, E230N
B3: FIXa-Y155F/R318Y/R338E/R403E/E410N (protein)
chain 1: B1 chain 1
chain 2: B1 chain 2 with E113K, R138Y, E230N
B4: FIXa-K247N/N249S/R318Y/R403E/E410N (protein)
chain 1: B1 chain 1
chain 2: B1 chain 2 with K67N, N69S, E113K, R138Y, E158R, E230N
B5: FIXa R318Y/R338E/E410N (protein)
chain 1: B1 chain 1
chain 2: B1 chain 2 with E113K, R138Y, E223R, E230N
B6: FIXa-R338E/R403E/E410N (protein)
chain 1: B1 chain 1
chain 2: B1 chain 2 with E113K, E230N
B7: FIXa-K247N/N249S/R318Y/R338E/R403E (protein)
chain 1: B1 chain 1
chain 2: B1 chain 2 with K67N, N69S, E113K, R138Y
B8: FIXa-Y155F/K247N/N249S/R318Y/R403E/E410N (protein)
chain 1: B1 chain 1
chain 2: B1 chain 2 with K67N, N69S, E113K, R138Y, E158R, E230N
B9: FIXa-Y155F/R338E/R403E/E410N (protein)
chain 1: B1 chain 1
chain 2: B1 chain 2 with E113K, E158R, R178E, E230N
B10: FIXa-A103N/N105S/Y155F/R318Y/R338E/R403E/E410N (protein)
chain 1: B1 chain 1 with A103N, N105S
chain 2: B1 chain 2 with E113K, R138Y, E230N
B11: FIXa-Y155F/R318Y/R338E/R403E (protein)
chain 1: B1 chain 1
chain 2: B1 chain 2 with E113K, R138Y
B12: FIXa-Y155F/K247N/N249S/R318Y/R338E/R403E (protein)
chain 1: B1 chain 1
chain 2: B1 chain 2 with K67N, N69S, E113K, R138Y
B13: FIXa-D104N/K106S/Y155F/R318Y/R338E/R403E/E410N (protein)
chain 1: B1 chain 1 with D104N, K106S
chain 2: B1 chain 2 with E113K, R138Y, E230N
B14: FIXa-A103N/N105S/R318Y/R338E/R403E/E410N (protein)
chain 1: B1 chain 1 with A103N, N105S
chain 2: B1 chain 2 with E113K, R138Y, E230N
B15: FIXa-D104N/K106S/R318Y/R338E/R403E/E410N (protein)
chain 1: B1 chain 1 with D104N, K106S
chain 2: B1 chain 2 with E113K, R138Y, E230N
B16: FIXa R318Y/R338E/R403E/E410N (protein)
chain 1: B1 chain 1
chain 2: B1 chain 2 with E113K, R138Y, E230N
B17: FIXa R318Y/R338E/R403E (protein)
chain 1: B1 chain 1
chain 2: B1 chain 2 with E113K, R138Y
B18: FIXa variant Y155F/R318Y/R338E/E410N (mature FIX numbering) (protein)
chain 1: B1 chain 1
chain 2: B1 chain 2 with E113K, R138Y, E223R, E230N
B19: FIXa variant D104N/K106S/R318Y/R338E/E410N (mature FIX numbering) (protein)
chain 1: B1 chain 1 with D104N, K106S
chain 2: B1 chain 2 with E113K, R138Y, E223R, E230N
B20: FIXa variant K228N/R338E/R403E (mature FIX numbering) (protein)
chain 1: B1 chain 1
chain 2: B1 chain 2 with K48N, E113K
B21: FIXa variant R318Y/R338E/E410N (mature FIX numbering) (protein)
chain 1: B1 chain 1
chain 2: B1 chain 2 with E113K, R138Y, E223R, E230N
B22: FIXa variant A103N/N105S/Y155F/R318Y/R338E/R403E/E410N (mature FIX numbering) (protein)
chain 1: B1 chain 1 with A103N, N105S
chain 2: B1 chain 2 with E113K, R138Y, E230N
B23: FIXa variant Y155F/R318Y/R338E/R403E/E410N (mature FIX numbering) (protein)
chain 1: B1 chain 1
chain 2: B1 chain 2 with E113K, R138Y, E230N
B24: FIXa variant K228N/R318Y/E410N (mature FIX numbering) (protein)
chain 1: B1 chain 1
chain 2: B1 chain 2 with K48N, E113K, R138Y, E158R, E223R, E230N
B25: FIXa variant D104N/K106S/R318Y/R338E/R403E/E410N (mature FIX numbering) (protein)
chain 1: B1 chain 1 with D104N, K106S
chain 2: B1 chain 2 with E113K, R138Y, E230N
B26: FIXa variant D104N/K106S/Y155F/R318Y/R338E/R403E/E410N (mature FIX numbering) (protein)
chain 1: B1 chain 1 with D104N, K106S
chain 2: B1 chain 2 with E113K, R138Y, E230N
B27: FIXa variant R318Y/R338E/R403E/E410N (mature FIX numbering) (protein)
chain 1: B1 chain 1
chain 2: B1 chain 2 with E113K, R138Y, E230N
B28: FIXa variant A103N/N105S/R318Y/R338E/R403E/E410N (mature FIX numbering) (protein)
chain 1: B1 chain 1 with A103N, N105S
chain 2: B1 chain 2 with E113K, R138Y, E230N
B29: FIXa-Y155F/R318Y/R403E/E410N (protein)
chain 1: B1 chain 1
chain 2: B1 chain 2 with E113K, R138Y, E158R, E230N
B30: FIXa variant Y155F/R318Y/R403E/E410N (mature FIX numbering) (protein)
chain 1: B1 chain 1
chain 2: B1 chain 2 with E113K, R138Y, E158R, E230N
B31: FIXa variant D203N/F205T/R338E/R403E (mature FIX numbering) (protein)
chain 1: B1 chain 1
chain 2: B1 chain 2 with D23N, F25T, E113K
B32: FIXa variant D203N/F205T/R318Y (mature FIX numbering) (protein)
chain 1: B1 chain 1
chain 2: B1 chain 2 with D23N, F25T, E113K, R138Y, E158R, E223R
B33: FIXa variant R318Y/R403E/E410N (mature FIX numbering) (protein)
chain 1: B1 chain 1
chain 2: B1 chain 2 with E113K, R138Y, E158R, E230N
B34: FIXa variant D203N/F205T/R318Y/E410N (mature FIX numbering) (protein)
chain 1: B1 chain 1
chain 2: B1 chain 2 with D23N, F25T, E113K, R138Y, E158R, E223R, E230N
B35: FIXa-D104N/K106S/Y155F/K247N/N249S/R318Y/R338E/R403E/E410N (protein)
chain 1: B1 chain 1 with D104N, K106S
chain 2: B1 chain 2 with K67N, N69S, E113K, R138Y, E230N

For the first data set, the target named is Factor X, P00742.
Sequence of Factor X, P00742 (P00742 whole entry, looked up): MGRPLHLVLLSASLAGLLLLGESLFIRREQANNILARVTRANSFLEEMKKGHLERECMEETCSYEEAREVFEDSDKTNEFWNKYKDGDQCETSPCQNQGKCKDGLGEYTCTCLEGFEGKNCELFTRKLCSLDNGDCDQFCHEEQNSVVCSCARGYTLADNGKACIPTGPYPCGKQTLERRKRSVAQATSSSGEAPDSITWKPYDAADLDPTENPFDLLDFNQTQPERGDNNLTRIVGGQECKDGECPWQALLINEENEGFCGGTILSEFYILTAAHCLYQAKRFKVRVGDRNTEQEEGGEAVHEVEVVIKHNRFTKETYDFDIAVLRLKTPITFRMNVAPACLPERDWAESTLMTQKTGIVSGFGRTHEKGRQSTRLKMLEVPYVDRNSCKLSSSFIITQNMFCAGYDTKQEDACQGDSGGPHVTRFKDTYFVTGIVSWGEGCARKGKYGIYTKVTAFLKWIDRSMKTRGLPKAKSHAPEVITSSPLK
With B1, the turnover number (kcat) came out at 0.8 s⁻¹.
For the protein B2, the KM (Catalytic activity of FIXa variants) turned out to be 0.0457 µM.
The same measure, in the same setting: under B3 stands 0.0304 µM.
Consider B4, for which the kcat/KM worked out at 2.7e+07 M⁻¹ s⁻¹.
As to B5, the kcat turned out to be 4.6 s⁻¹.
As for B6, the “% of WT (kcat/KM)” value was determined as 411%, the KM (Catalytic activity of FIXa variants) turned out to be 0.0455 µM and the kcat/KM was found to be 1.9e+08 M⁻¹ s⁻¹.
On to B7, for which the catalytic efficiency (kcat/KM) worked out at 2.3e+08 M⁻¹ s⁻¹.
The same measure, in the same setting: then B8, with 1e+07 M⁻¹ s⁻¹.
Regarding B9, the “% of WT (kcat/KM)” value is on record as 401% and the kcat/KM turned out to be 1.8e+08 M⁻¹ s⁻¹.
As to B10, the KM (Catalytic activity of FIXa variants) was determined as 0.0507 µM.
B11: the “% of WT (kcat/KM)” value was 189% and the kcat/KM is 8.7e+07 M⁻¹ s⁻¹.
On to B12, for which the catalytic efficiency (kcat/KM) came to 9.5e+07 M⁻¹ s⁻¹.
On to B13, for which the KM (Catalytic activity of FIXa variants) was determined as 0.048 µM.
With B14, the KM (Catalytic activity of FIXa variants) stood at 0.0447 µM.
For the protein B15, the KM (Catalytic activity of FIXa variants) was 0.0385 µM.
Regarding B16, the kcat came out at 5 s⁻¹.
With B17, the catalytic constant (kcat) turned out to be 3.5 s⁻¹.

The target of another data set is Factor X (FX), P00742.
Sequence of Factor X (FX), P00742 (P00742 whole entry, looked up): as above
On to B2, for which the kcat/KM (M^-1s^-1), FX activation by FIXa in the Xase complex turned out to be 3.9e+07 M⁻¹ s⁻¹.
On to B18, for which the KM of FX activation by FIXa in the Xase complex (FVIIIa, PC/PS vesicles, Ca2+) turned out to be 0.016 µM.
Regarding B19, the KM of FX activation by FIXa in the Xase complex (FVIIIa, PC/PS vesicles, Ca2+) is 0.0189 µM.
For the protein B3, the kcat/KM (M^-1s^-1), FX activation by FIXa in the Xase complex worked out at 1.9e+08 M⁻¹ s⁻¹.
Regarding B4, the KM amounted to 0.111 µM and the kcat of FX activation by FIXa in the Xase complex (FVIIIa, PC/PS vesicles, Ca2+) came out at 2.9 s⁻¹.
Regarding B20, the KM of FX activation by FIXa in the Xase complex (FVIIIa, PC/PS vesicles, Ca2+) was 0.0592 µM.
With B6, the kcat/KM for FX activation (Xase assay with FVIIIa, PC/PS vesicles, Ca2+) came out at 7.8e+07 M⁻¹ s⁻¹.
On to B21, for which the KM of FX activation by FIXa in the Xase complex (FVIIIa, PC/PS vesicles, Ca2+) turned out to be 0.0139 µM.
Take B7: the Michaelis-Menten constant (KM) worked out at 0.0536 µM and the kcat of FX activation by FIXa in the Xase complex (FVIIIa, PC/PS vesicles, Ca2+) was 10.5 s⁻¹.
Regarding B22, the KM of FX activation by FIXa in the Xase complex (FVIIIa, PC/PS vesicles, Ca2+) was 0.0507 µM.
For B23, the KM of FX activation by FIXa in the Xase complex (FVIIIa, PC/PS vesicles, Ca2+) stood at 0.0304 µM.
For B24, the KM of FX activation by FIXa in the Xase complex (FVIIIa, PC/PS vesicles, Ca2+) stood at 0.042 µM.
Take B25: the KM of FX activation by FIXa in the Xase complex (FVIIIa, PC/PS vesicles, Ca2+) came out at 0.0385 µM.
Still for that read-out and setting: then B26, with 0.048 µM.
Turning to B8, the KM worked out at 0.125 µM and the kcat of FX activation by FIXa in the Xase complex (FVIIIa, PC/PS vesicles, Ca2+) was 1.2 s⁻¹.
Consider B27, for which the KM of FX activation by FIXa in the Xase complex (FVIIIa, PC/PS vesicles, Ca2+) was determined as 0.0432 µM.
On the same count and under the same terms, then B28, with 0.0447 µM.
B10: the kcat/KM (M^-1s^-1), FX activation by FIXa in the Xase complex stood at 1.3e+08 M⁻¹ s⁻¹.
As for B29, the kcat/KM (M^-1s^-1), FX activation by FIXa in the Xase complex worked out at 3.6e+07 M⁻¹ s⁻¹.
In the case of B30, the KM of FX activation by FIXa in the Xase complex (FVIIIa, PC/PS vesicles, Ca2+) was 0.111 µM.
With B12, the KM is 0.0673 µM and the kcat of FX activation by FIXa in the Xase complex (FVIIIa, PC/PS vesicles, Ca2+) was found to be 5.7 s⁻¹.
For the protein B31, the KM of FX activation by FIXa in the Xase complex (FVIIIa, PC/PS vesicles, Ca2+) is 0.0511 µM.
For the protein B13, the kcat/KM (M^-1s^-1), FX activation by FIXa in the Xase complex came to 1.8e+08 M⁻¹ s⁻¹.
Same read-out and setting: then B14, with 1.5e+08 M⁻¹ s⁻¹.
On to B32, for which the KM of FX activation by FIXa in the Xase complex (FVIIIa, PC/PS vesicles, Ca2+) was 0.0475 µM.
Consider B15, for which the kcat/KM (M^-1s^-1), FX activation by FIXa in the Xase complex is 1.7e+08 M⁻¹ s⁻¹.
As to B33, the KM of FX activation by FIXa in the Xase complex (FVIIIa, PC/PS vesicles, Ca2+) worked out at 0.0942 µM.
For B34, the KM of FX activation by FIXa in the Xase complex (FVIIIa, PC/PS vesicles, Ca2+) came to 0.0457 µM.
On to B35, for which the kcat/KM was determined as 1.3e+08 M⁻¹ s⁻¹.

For the next data set, the target named is antithrombin III (plasma purified human AT-III), in complex with unfractionated heparin.
On to B6, for which the K0.5 came to 2350 nM and the K0.5-mut/K0.5-wt was 122.

The term kcat denotes the maximal rate divided by the concentration of active sites. Broadly, the kcat/KM is the turnover number divided by the Michaelis constant. For orientation: KM means the substrate concentration at which the rate is half of its maximum.
